Measured values reported in patent publication US20260232820A1 (MEDICENNA THERAPEUTICS, published 2026).

B1: MDNA132.15-PE (other)
chain: GPGPVPPSTAHRELIRELVNITQNQKAPLCNGSMVWSINLTAGMYCAALESLINVSGCSAIEKTQRMLSGFCPHKVSAGQFSSLHVTGRKIEVAQFVKDLLLHLKKLFKEGQFNASGGPEGGSLAALTAHQACHLPLETFTRHRQPRGWEQLEQCGYPVQRLVALYLAARLSWNQVDQVIRNALASPGSGGDLGEAIREQPEQARLALTLAAAESERFVRQGTGNDEAGAANGPADSGDALLERNYPTGAEFLGDGGDVSFSTRGTQNWTVERLLQAHRQLEERGYVFVGYHGTFLEAAQSIVFGGVRARSQDLDAIWRGFYIAGDPALAYGYAQDQEPDARGRIRNGALLRVYVPRSSLPGFYRTSLTLAAPEAAGEVERLIGHPLPLRLDAITGPEEEGGRLETILGWPLAERTVVIPSAIPTDPRNVGGDLDPSSIPDKEQAISALPDYASQPGKPPKDEL
B2: cpMDNA132.15-PE (other)
chain: MTAGMYCAALESLINVSGCSAIEKTQRMLSGFCPHKVSAGQFSSLHVTGRKIEVAQFVKDLLLHLKKLFKEGQFNGGNGGPGPVPPSTAHRELIRELVNITQNQKAPLCNGSMVWSINLASGGPEGGSLAALTAHQACHLPLETFTRHRQPRGWEQLEQCGYPVQRLVALYLAARLSWNQVDQVIRNALASPGSGGDLGEAIREQPEQARLALTLAAAESERFVRQGTGNDEAGAANGPADSGDALLERNYPTGAEFLGDGGDVSFSTRGTQNWTVERLLQAHRQLEERGYVFVGYHGTFLEAAQSIVFGGVRARSQDLDAIWRGFYIAGDPALAYGYAQDQEPDARGRIRNGALLRVYVPRSSLPGFYRTSLTLAAPEAAGEVERLIGHPLPLRLDAITGPEEEGGRLETILGWPLAERTVVIPSAIPTDPRNVGGDLDPSSIPDKEQAISALPDYASQPGKPPKDEL
B3: human IL-13Rα1 (receptor, UniProt P78552 22-343, looked up)
chain: GGGGAAPTETQPPVTNLSVSVENLCTVIWTWNPPEGASSNCSLWYFSHFGDKQDKKIAPETRRSIEVPLNERICLQVGSQCSTNESEKPSILVEKCISPPEGDPESAVTELQCIWHNLSYMKCSWLPGRNTSPDTNYTLYYWHRSLEKIHQCENIFREGQYFGCSFDLTKVKDSSFEQHSVQIMVKDNAGKIKPSFNIVPLTSRVKPDPPHIKNLSFHNDDLYVQWENPQNFISRCLFYEVEVNNSQTETHNVFYVQEAKCENPEFERNVENTSCFMVPGVLPDTLNTVRIRVKTNKLCYEDDKLWSNWSQEMSIGKKRNST
notes: also called IL-13αR1
B4: human IL-13Rα2 (receptor, UniProt Q14627 27-343, looked up)
chain: DTEIKVNPPQDFEIVDPGYLGYLYLQWQPPLSLDHFKECTVEYELKYRNIGSETWKTIITKNLHYKDGFDLNKGIEAKIHTLLPWQCTNGSEVQSSWAETTYWISPQGIPETKVQDMDCVYYNWQYLLCSWKPGIGVLLDTNYNLFYWYEGLDHALQCVDYIKADGQNIGCRFPYLEASDYKDFYICVNGSSENKPIRSSYFTFQLQNIVKPLPPVYLTFTRESSCEIKLKWSIPLGPIPARCFDYEIEIREDDTTLVTATVENETYTLKTTNETRQLCFVVRSKVNIYCSDDGIWSEWSDKQCWEGEDLSKKTLLR
notes: also called IL-13Ra2; human IL-13 decoy receptor

What was measured:
[1] = target: T1, IL-13Rα2 on human A375 and U87 cells (human, UniProt Q14627 27-380); test: cell-based or functional assay
T1 sequence (looked up): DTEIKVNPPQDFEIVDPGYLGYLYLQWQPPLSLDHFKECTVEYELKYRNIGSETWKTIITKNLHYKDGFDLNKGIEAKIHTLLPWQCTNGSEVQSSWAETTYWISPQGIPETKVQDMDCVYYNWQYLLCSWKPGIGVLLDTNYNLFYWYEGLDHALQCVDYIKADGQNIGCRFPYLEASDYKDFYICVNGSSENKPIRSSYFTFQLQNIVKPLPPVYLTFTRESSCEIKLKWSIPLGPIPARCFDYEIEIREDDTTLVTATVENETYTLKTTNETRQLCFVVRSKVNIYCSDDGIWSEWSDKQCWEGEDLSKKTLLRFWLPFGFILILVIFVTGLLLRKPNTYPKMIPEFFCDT

[2] = target: IL-13Rα2 on engineered EMT6 cells (EMT6-IL13Rα2); test: cell-based or functional assay
[3] = target: T1, IL-13Rα2 on human A375 and U87 cells; test: cell-based or functional assay; remark: listed apart in the source
[4] = target: IL-13Rα2 on engineered EMT6 cells (EMT6-IL13Rα2); test: cell-based or functional assay; remark: listed apart in the source
Fc-IL13 (1:1 KIH) = target: T2, Fc-IL13 (1:1 KIH) (human, UniProt P35225 34-146); test: SPR
T2 construct: also called Fc-IL13 KIH
Procedure: Receptor binding was assessed using surface plasmon resonance (SPR) in which test constructs (i.e., Fc-MDNA132) were bound onto SPR chip surface and receptors (i.e., IL-13Rα1 and IL-13Rα2) were used as flow analytes (data not shown).
Representative SPR sensorgrams of Fc-MDNA132 and Fc-51.13 binding to […] and IL-13Rα2 is shown in (data not shown) and KD values are tabulated in Table 12. Variants contain the 5 core mutations of MDNA132 and an added mutation at amino acid position indicated in the name of the constructs.

| Binder | IC50 (pM), cytotoxicity assay, A375 cells, 48 h incubation [1] | IC50 (pM), cytotoxicity assay, U87 cells, 48 h incubation [1] | IC50 (pM), cytotoxicity assay, EMT6-IL13Rα2 cells, 48 h incubation [2] | IC50 (pM), cytotoxicity assay, A375 cells, 72 h incubation [3] | IC50 (pM), cytotoxicity assay, U87 cells, 72 h incubation [3] | IC50 (pM), cytotoxicity assay, EMT6-IL13Rα2 cells, 72 h incubation [4] | Kd (Fc-IL13 (1:1 KIH)) |
| --- | --- | --- | --- | --- | --- | --- | --- |
| B1 | 1.02 pM | 11.4 pM | 2.1 pM | 1.1 pM | 208 pM | 1.13 pM | – |
| B2 | 1.5 pM | 4.2 pM | 1 pM | 1.3 pM | 7.6 pM | 1 pM | – |
| B3 | – | – | – | – | – | – | 470 nM |
| B4 | – | – | – | – | – | – | 0.15 nM |
